According to the supplement of paper PMC5998384:

Legend:
HeLa Kyoto [1] = experiment: solubility change mitosis vs G1/S (difference of NP-40 vs SDS log2 ratios) (log2 ratio difference); higher = more soluble in mitosis
HeLa Kyoto [2] = experiment: solubility in G1/S (NP-40 vs SDS abundance) (log2 ratio); higher = more soluble; details: cell cycle stage: G1/S
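Wherever solubility change mitosis vs G1/S (difference of NP-40 vs SDS log2 ratios) is given: synchronized HeLa Kyoto cells (double thymidine block for G1/S, nocodazole release for mitosis), protein amounts in NP-40 versus SDS lysates quantified by mass spectrometry, three biological replicates.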
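Wherever solubility in G1/S (NP-40 vs SDS abundance) is given: HeLa Kyoto cells arrested at G1/S by double thymidine block, proteins quantified by TMT10plex mass spectrometry in mild NP-40 versus SDS extracts, three biological replicates.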

MSGGGTETPVGCEAAPGGGSKKRDSLGTAGSAHLIIKDLGEIHSRLLDHRPVIQGETRYFVKEFEEKRGLREMRVLENLKNMIHETNEHTLPKCRDTMRDSLSQVLQRLQAANDSVCRLQQREQERKKIHSDHLVASEKQHMLQWDNFMKEQPNKRAEVDEEHRKAMERLKEQYAEMEKDLAKFSTF [BLOC1S5]
solubility change mitosis (log2) (HeLa Kyoto [1]): -0.0624
solubility in G1/S (log2) (HeLa Kyoto [2]): 0.438

MSGRSVRAETRSRAKDDIKKVMAAIEKVRKWEKKWVTVGDTSLRIFKWVPVTDSKEKEKSKSNSSAAREPNGFPSDASANSSLLLEFQDENSNQSSVSDVYQLKVDSSTNSSPSPQQSESLSPAHTSDFRTDDSQPPTLGQEILEEPSLPSSEVADEPPTLTKEEPVPLETQVVEEEEDSGAPPLKRFCVDQPTVPQTASES [BCL7B]
solubility change mitosis (log2) (HeLa Kyoto [1]): 0.0126
solubility in G1/S (log2) (HeLa Kyoto [2]): 0.295

MSGTSKESLGHGGLPGLGKTCLTTMDTKLNMLNEKVDQLLHFQEDVTEKLQSMCRDMGHLERGLHRLEASRAPGPGGADGVPHIDTQAGWPEVLELVRAMQQDAAQHGARLEALFRMVAAVDRAIALVGATFQKSKVADFLMQGRVPWRRGSPGDSPEENKERVEEEGGKPKHVLSTSGVQSDAREPGEESQKADVLEGTAERLPPIRASGLGADPAQAVVSPGQGDGVPGPAQAFPGHLPLPTKVEAKAPETPSENLRTGLELAPAPGRVNVVSPSLEVAPGAGQGASSSRPDPEPLEEGTRLTPGPGPQCPGPPGLPAQARATHSGGETPPRISIHIQEMDTPGEMLMTGRGSLGPTLTTEAPAAAQPGKQGPPGTGRCLQAPGTEPGEQTPEGARELSPLQESSSPGGVKAEEEQRAGAEPGTRPSLARSDDNDHEVGALGLQQGKSPGAGNPEPEQDCAARAPVRAEAVRRMPPGAEAGSVVLDDSPAPPAPFEHRVVSVKETSISAGYEVCQHEVLGGGRFGQVHRCTEKSTGLPLAAKIIKVKSAKDREDVKNEINIMNQLSHVNLIQLYDAFESKHSCTLVMEYVDGGELFDRITDEKYHLTELDVVLFTRQICEGVHYLHQHYILHLDLKPENILCVNQTGHQIKIIDFGLARRYKPREKLKVNFGTPEFLAPEVVNYEFVSFPTDMWSVGVITYMLLSGLSPFLGETDAETMNFIVNCSWDFDADTFEGLSEEAKDFVSRLLVKEKSCRMSATQCLKHEWLNNLPAKASRSKTRLKSQLLLQKYIAQRKWKKHFYVVTAANRLRKFPTSP [MYLK3]
solubility change mitosis (log2) (HeLa Kyoto [1]): -0.0471
solubility in G1/S (log2) (HeLa Kyoto [2]): -0.00349

MSKKKGLSAEEKRTRMMEIFSETKDVFQLKDLEKIAPKEKGITAMSVKEVLQSLVDDGMVDCERIGTSNYYWAFPSKALHARKHKLEVLESQLSEGSQKHASLQKSIEKAKIGRCETEERTRLAKELSSLRDQREQLKAEVEKYKDCDPQVVEEIRQANKVAKEAANRWTDNIFAIKSWAKRKFGFEENKIDRTFGIPEDFDYID [MND1]
solubility change mitosis (log2) (HeLa Kyoto [1]): -0.05
solubility in G1/S (log2) (HeLa Kyoto [2]): 0.61

MSKLPRELTRDLERSLPAVASLGSSLSHSQSLSSHLLPPPEKRRAISDVRRTFCLFVTFDLLFISLLWIIELNTNTGIRKNLEQEIIQYNFKTSFFDIFVLAFFRFSGLLLGYAVLRLRHWWVIAVTTLVSSAFLIVKVILSELLSKGAFGYLLPIVSFVLAWLETWFLDFKVLPQEAEEERWYLAAQVAVARGPLLFSGALSEGQFYSPPESFAGSDNESDEEVAGKKSFSAQEREYIRQGKEATAVVDQILAQEENWKFEKNNEYGDTVYTIEVPFHGKTFILKTFLPCPAELVYQEVILQPERMVLWNKTVTACQILQRVEDNTLISYDVSAGAAGGVVSPRDFVNVRRIERRRDRYLSSGIATSHSAKPPTHKYVRGENGPGGFIVLKSASNPRVCTFVWILNTDLKGRLPRYLIHQSLAATMFEFAFHLRQRISELGARA [STARD3]
solubility change mitosis (log2) (HeLa Kyoto [1]): -0.178
solubility in G1/S (log2) (HeLa Kyoto [2]): -0.0414

MSLALRSELVVDKTKRKKRRELSEEQKQEIKDAFELFDTDKDEAIDYHELKVAMRALGFDVKKADVLKILKDYDREATGKITFEDFNEVVTDWILERDPHEEILKAFKLFDDDDSGKISLRNLRRVARELGENMSDEELRAMIEEFDKDGDGEINQEEFIAIMTGDI [CETN3]
solubility change mitosis (log2) (HeLa Kyoto [1]): 0.0873
solubility in G1/S (log2) (HeLa Kyoto [2]): 0.133

MSQGPPTGESSEPEAKVLHTKRLYRAVVEAVHRLDLILCNKTAYQEVFKPENISLRNKLRELCVKLMFLHPVDYGRKAEELLWRKVYYEVIQLIKTNKKHIHSRSTLECAYRTHLVAGIGFYQHLLLYIQSHYQLELQCCIDWTHVTDPLIGCKKPVSASGKEMDWAQMACHRCLVYLGDLSRYQNELAGVDTELLAERFYYQALSVAPQIGMPFNQLGTLAGSKYYNVEAMYCYLRCIQSEVSFEGAYGNLKRLYDKAAKMYHQLKKCETRKLSPGKKRCKDIKRLLVNFMYLQSLLQPKSSSVDSELTSLCQSVLEDFNLCLFYLPSSPNLSLASEDEEEYESGYAFLPDLLIFQMVIICLMCVHSLERAGSKQYSAAIAFTLALFSHLVNHVNIRLQAELEEGENPVPAFQSDGTDEPESKEPVEKEEEPDPEPPPVTPQVGEGRKSRKFSRLSCLRRRRHPPKVGDDSDLSEGFESDSSHDSARASEGSDSGSDKSLEGGGTAFDAETDSEMNSQESRSDLEDMEEEEGTRSPTLEPPRGRSEAPDSLNGPLGPSEASIASNLQAMSTQMFQTKRCFRLAPTFSNLLLQPTTNPHTSASHRPCVNGDVDKPSEPASEEGSESEGSESSGRSCRNERSIQEKLQVLMAEGLLPAVKVFLDWLRTNPDLIIVCAQSSQSLWNRLSVLLNLLPAAGELQESGLALCPEVQDLLEGCELPDLPSSLLLPEDMALRNLPPLRAAHRRFNFDTDRPLLSTLEESVVRICCIRSFGHFIARLQGSILQFNPEVGIFVSIAQSEQESLLQQAQAQFRMAQEEARRNRLMRDMAQLRLQLEVSQLEGSLQQPKAQSAMSPYLVPDTQALCHHLPVIRQLATSGRFIVIIPRTVIDGLDLLKKEHPGARDGIRYLEAEFKKGNRYIRCQKEVGKSFERHKLKRQDADAWTLYKILDSCKQLTLAQGAGEEDPSGMVTIITGLPLDNPSVLSGPMQAALQAAAHASVDIKNVLDFYKQWKEIG [SMG5]
solubility change mitosis (log2) (HeLa Kyoto [1]): -0.207
solubility in G1/S (log2) (HeLa Kyoto [2]): -0.176

MSRKISKESKKVNISSSLESEDISLETTVPTDDISSSEEREGKVRITRQLIERKELLHNIQLLKIELSQKTMMIDNLKVDYLTKIEELEEKLNDALHQKQLLTLRLDNQLAFQQKDASKYQELMKQEMETILLRQKQLEETNLQLREKAGDVRRNLRDFELTEEQYIKLKAFPEDQLSIPEYVSVRFYELVNPLRKEICELQVKKNILAEELSTNKNQLKQLTETYEEDRKNYSEVQIRCQRLALELADTKQLIQQGDYRQENYDKVKSERDALEQEVIELRRKHEILEASHMIQTKERSELSKEVVTLEQTVTLLQKDKEYLNRQNMELSVRCAHEEDRLERLQAQLEESKKAREEMYEKYVASRDHYKTEYENKLHDELEQIRLKTNQEIDQLRNASREMYERENRNLREARDNAVAEKERAVMAEKDALEKHDQLLDRYRELQLSTESKVTEFLHQSKLKSFESERVQLLQEETARNLTQCQLECEKYQKKLEVLTKEFYSLQASSEKRITELQAQNSEHQARLDIYEKLEKELDEIIMQTAEIENEDEAERVLFSYGYGANVPTTAKRRLKQSVHLARRVLQLEKQNSLILKDLEHRKDQVTQLSQELDRANSLLNQTQQPYRYLIESVRQRDSKIDSLTESIAQLEKDVSNLNKEKSALLQTKNQMALDLEQLLNHREELAAMKQILVKMHSKHSENSLLLTKTEPKHVTENQKSKTLNVPKEHEDNIFTPKPTLFTKKEAPEWSKKQKMKT [PIBF1]
solubility change mitosis (log2) (HeLa Kyoto [1]): 0.297
solubility in G1/S (log2) (HeLa Kyoto [2]): 0.069

MSRRPCSCALRPPRCSCSASPSAVTAAGRPRPSDSCKEESSTLSVKMKCDFNCNHVHSGLKLVKPDDIGRLVSYTPAYLEGSCKDCIKDYERLSCIGSPIVSPRIVQLETESKRLHNKENQHVQQTLNSTNEIEALETSRLYEDSGYSSFSLQSGLSEHEEGSLLEENFGDSLQSCLLQIQSPDQYPNKNLLPVLHFEKVVCSTLKKNAKRNPKVDREMLKEIIARGNFRLQNIIGRKMGLECVDILSELFRRGLRHVLATILAQLSDMDLINVSKVSTTWKKILEDDKGAFQLYSKAIQRVTENNNKFSPHASTREYVMFRTPLASVQKSAAQTSLKKDAQTKLSNQGDQKGSTYSRHNEFSEVAKTLKKNESLKACIRCNSPAKYDCYLQRATCKREGCGFDYCTKCLCNYHTTKDCSDGKLLKASCKIGPLPGTKKSKKNLRRL [FBXO5]
solubility change mitosis (log2) (HeLa Kyoto [1]): 0.249
solubility in G1/S (log2) (HeLa Kyoto [2]): 0.273

MSSEESYRAILRYLTNEREPYAPGTEGNVKRKIRKAAACYVVRGGTLYYQRRQRHRKTFAELEVVLQPERRRDLIEAAHLGPGGTHHTRHQTWHYLSKTYWWRGILKQVKDYIKQCSKCQEKLDRSRPISDVSEMLEELGLDLESGEESNESEDDLSNFTSSPTTASKPAKKKPVSKHELVFVDTKGVVKRSSPKHCQAVLKQLNEQRLSNQFCDVTLLIEGEEYKAHKSVLSANSEYFRDLFIEKGAVSSHEAVVDLSGFCKASFLPLLEFAYTSVLSFDFCSMADVAILARHLFMSEVLEICESVHKLMEEKQLTVYKKGEVQTVASTQDLRVQNGGTAPPVASSEGTTTSLPTELGDCEIVLLVNGELPEAEQNGEVGRQPEPQVSSEAESALSSVGCIADSHPEMESVDLITKNNQTELETSNNRENNTVSNIHPKLSKENVISSSPEDSGMGNDISAEDICAEDIPKHRQKVDQPLKDQENLVASTAKTDFGPDDDTYRSRLRQRSVNEGAYIRLHKGMEKKLQKRKAVPKSAVQQVAQKLVQRGKKMKQPKRDAKENTEEASHKCGECGMVFQRRYALIMHKLKHERARDYKCPLCKKQFQYSASLRAHLIRHTRKDAPSSSSSNSTSNEASGTSSEKGRTKREFICSICGRTLPKLYSLRIHMLKHTGVKPHACQVCGKTFIYKHGLKLHQSLHQSQKQFQCELCVKSFVTKRSLQEHMSIHTGESKYLCSVCGKSFHRGSGLSKHFKKHQPKPEVRGYHCTQCEKSFFEARDLRQHMNKHLGVKPFQCQFCDKCYSWKKDWYSHVKSHSVTEPYRCNICGKEFYEKALFRRHVKKATHGKKGRAKQNLERVCEKCGRKFTQLREYRRHMNNHEGVKPFECLTCGVAWADARSLKRHVRTHTGERPYVCPVCSEAYIDARTLRKHMTKFHRDYVPCKIMLEKDTLQFHNQGTQVAHAVSILTAGMQEQESSGPQELETVVVTGETMEALEAVAATEEYPSVSTLSDQSIMQVVNYVLAQQQGQKLSEVAEAIQTVKVEVAHISGGE [ZBTB11]
solubility change mitosis (log2) (HeLa Kyoto [1]): 0.267
solubility in G1/S (log2) (HeLa Kyoto [2]): -0.621
